Biological target: DDX3X helicase core WT (human, UniProt O00571 132-607)
Test: fluorescence polarization

Sequence of DDX3X helicase core WT (O00571 132-607): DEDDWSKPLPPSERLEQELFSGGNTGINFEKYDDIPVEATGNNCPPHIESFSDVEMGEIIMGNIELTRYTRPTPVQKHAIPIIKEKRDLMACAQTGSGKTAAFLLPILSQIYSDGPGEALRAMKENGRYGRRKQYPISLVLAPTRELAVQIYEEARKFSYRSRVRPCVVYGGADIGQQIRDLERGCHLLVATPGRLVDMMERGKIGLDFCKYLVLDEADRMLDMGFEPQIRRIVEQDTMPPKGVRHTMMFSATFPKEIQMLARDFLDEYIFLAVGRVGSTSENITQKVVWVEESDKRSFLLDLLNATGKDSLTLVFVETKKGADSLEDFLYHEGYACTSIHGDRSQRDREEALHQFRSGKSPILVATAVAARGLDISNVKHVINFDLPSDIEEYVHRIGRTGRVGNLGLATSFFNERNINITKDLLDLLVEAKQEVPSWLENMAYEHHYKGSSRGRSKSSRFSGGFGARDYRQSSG

B1: (UC)10 (ssRNA)
RNA: UCUCUCUCUCUCUCUCUCUC
Does B1 bind?
Result: no binding

Source: PMC8052261
